Data as given in US7011817B2, “Hydrophilic cyanine dyes” (Mallinckrodt Inc., priority 2000, dated 2006).

What was measured:
[1] = Imaging of individual organs removed from CA20948 tumor-bearing rat; assay type: in vivo; settings: about 24 hours post administration
Method: Individual organs were removed at about 24 hours post Cytate 1 administration and imaged.

[2] = Monitoring of the blood clearance profile of peptide-dye conjugates; assay type: in vivo, Sprague-Dawley or Fischer 344 rats; settings: rat ear; monitored at 830 nm after excitation at 780 nm
Source text: A laser of appropriate wavelength for excitation of the dye chromophore was directed into one end of a fiber optic bundle and the other end was positioned a few millimeters from the ear of a rat. A second fiber optic bundle was also positioned near the same ear to detect the emitted fluorescent light and the other end was directed into the optics and electronics for data collection. An interference filter (IF) in the collection optics train was used to select emitted fluorescent light of the appropriate wavelength for the dye chromophore.
Sprague-Dawley or Fischer 344 rats were used in these studies. The animals were anesthetized with urethane administered via intraperitoneal injection at a dose of 1.35 g/kg body weight. After the animals had achieved the desired plane of anesthesia, a 21 gauge butterfly with 12″ tubing was placed in the lateral tail vein of each animal and flushed with heparinized saline. The animals were placed on a heating pad and kept warm throughout the entire study. The lobe of the left ear was affixed to a glass microscope slide to reduce movement and vibration.
Incident laser light delivered from the fiber optic was centered on the affixed ear. Data acquisition was then initiated, and a background reading of fluorescence was obtained prior to administration of the test agent. For Cytates 1 or 2, the peptide-dye conjugate was administered to the animal through a bolus injection, typically 0.5 to 2.0 mL, in the lateral tail vein. This procedure was repeated with several dye-peptide conjugates in normal and tumor-bearing rats. Representative profiles as a method to monitor blood clearance of the peptide-dye conjugate in normal and tumor-bearing animals are shown in FIGS. 12 to 16. The data were analyzed using a standard sigma plot software program for a one-compartment model.

[3] = system: Pancreatic Ductal Adenocarcinoma (DSL 6A); experiment: In vivo fluorescence imaging of DSL 6A tumors in rats; design: species or system male Lewis rats
Source text: (§1) A non-invasive in vivo fluorescence imaging apparatus was employed to assess the efficacy of contrast agents developed for tumor detection in animal models. A LaserMax Inc. laser diode of nominal wavelength 780 nm and nominal power of 40 mW was used. The detector was a Princeton Instruments model RTE/CCD-1317-K/2 CCD camera with a Rodenstock 10 mm F2 lens (stock #542.032.002.20) attached. An 830 nm interference […] (CVI Laser Corp., part # F10-830-4-2) was mounted in front of the CCD input lens such that only emitted fluorescent light from the contrast agent was imaged. Typically, an image of the animal was taken pre-injection of contrast agent. This image was subsequently subtracted (pixel by pixel) from the post injection images. However, the background subtraction was […] done once the animal had been removed from the sample area and returned at a later time for images taken several hours post injection.
DSL 6A tumors were induced in male Lewis rats in the left flank area by the introduction of material from a solid (donor) implant, and the tumors were palpable in approximately 14 days. The animals were anesthetized with xylazine:ketamine:acepromazine, 1.5:1.5:0.5 at 0.8 mL/kg via intramuscular injection. The area of the tumor (left flank) was shaved to expose the tumor and the surrounding surface area. […]

[4] = system: Rat pancreatic acinar carcinoma expressing the SST-2 receptor (CA20948); experiment: In vivo fluorescence imaging of pancreatic acinar carcinoma CA20948 in rats
Source text: as §1
The imaging apparatus and the procedure used are described in Example 12. Rat pancreatic acinar carcinoma expressing the SST-2 receptor (CA20948) was induced by solid implant technique in the left flank area, and palpable masses were detected nine days post implant. The images obtained at 2 and 30 minutes post injection are shown in FIGS. 7E-F. FIGS. 7E-F are images of a rat with an induced pancreatic acinar carcinoma (CA20948) expressing the SST-2 receptor imaged at two minutes (FIG. 7E) and 30 minutes (FIG. 7F) post injection.
The imaging apparatus and the procedure used are described in Example 12, except that each animal received 500 μl of a 1.0 mg/mL solution of Cytate 1 solution of 25% dimethylsulfoxide in water.
Rat pancreatic acinar carcinoma expressing the SST-2 receptor (CA20948) were induced by solid implant technique in the left flank area, and palpable masses were detected 24 days post implant. Images were obtained at various times post injection.
Cytate 1 was evaluated in the CA20948 Lewis rat model. […] At 27 hours post injection, the animal was again imaged (FIG. 9B).

[5] = system: Prostatic Carcinoma (R3327-H); experiment: In vivo fluorescence imaging of prostatic carcinoma R3327-H in rats; design: species or system male Copenhagen rats
Source text: as §1
The imaging apparatus and the procedure used are described as in Example 12. Prostate tumors (Dunning R3327-H) were induced in young male Copenhagen rats in the left flank area from a solid implant. These tumors grow very slowly and palpable masses were present 4-5 months post implant. FIGS. 7C-D are images of a rat with an induced prostatic carcinoma tumor (R3327-H) imaged at two minutes (FIG. 7C) and 30 minutes (FIG. 7D) post injection.

| Compound | organ uptake: adrenals [1] | organ uptake: heart [1] | organ uptake: liver [1] | organ uptake: muscle [1] | organ uptake: pancreas [1] | organ uptake: spleen [1] | organ uptake: tumor tissue [1] | blood fluorescence signal after bolus injection (rise) [2] | blood fluorescence signal after the peak (clearance) [2] | dye intensity in the tumor ([3]; 30 minutes post-ICG injection, DSL 6A tumor, 500 μL of 0.42 mg/mL in water, tail vein) | perfusion of the agent into the tumor ([3]; DSL 6/A (pancreatic) tumor line) | dye intensity in the tumor ([4]; 30 minutes post-ICG injection, CA20948 tumor) | dye fluorescence in the tumor at 45 minutes ([4]; 45 minutes post injection, CA20948 tumor) | perfusion of the agent into the tumor ([4]; CA20948 (pancreatic) tumor line) | dye intensity in the tumor ([5]; 30 minutes post-ICG injection, R3327-H tumor) | perfusion of the agent into the tumor ([5]; Dunning R3327H (prostate) tumor line) |
| --- | --- | --- | --- | --- | --- | --- | --- | --- | --- | --- | --- | --- | --- | --- | --- | --- |
| C[C@@H](O)[C@H](NC(=O)[C@@H]1CSSC[C@H](NC(=O)[C@@H](Cc2ccccc2)NC(=O)CC[N+]2=C(/C=C/C=C/C=C/C=C3/N(CCC(=O)O)c4ccc5ccccc5c4C3(C)C)C(C)(C)c3c2ccc2ccccc32)C(=O)N[C@@H](Cc2ccc(O)cc2)C(=O)N[C@H](Cc2c[nH]c3ccccc23)C(=O)N[C@@H](CCCCN)C(=O)N[C@@H]([C@@H](C)O)C(=O)N1)C(=O)O [Cytate 1, monoOctreotate-Bisethylcarboxymethylindocyanine dye] | high uptake | significantly lower uptake | significantly lower uptake | significantly lower uptake | high uptake | significantly lower uptake | high uptake | rapidly increased to a peak value | decayed as a function of time |  |  |  |  |  |  |  |
| C[C@@H](O)[C@H](NC(=O)[C@@H]1CSSC[C@H](NC(=O)[C@@H](Cc2ccccc2)NC(=O)CCN2C(=CC=CC=CC=CC3=[N+](CCC(=O)N[C@H](Cc4ccccc4)C(=O)N[C@H]4CSSC[C@@H](C(=O)N[C@H](C(=O)O)[C@@H](C)O)NC(=O)[C@H]([C@@H](C)O)NC(=O)[C@H](CCCCN)NC(=O)[C@@H](Cc5c[nH]c6ccccc56)NC(=O)[C@H](Cc5ccc(O)cc5)NC4=O)c4ccc5ccccc5c4C3(C)C)C(C)(C)c3c2ccc2ccccc32)C(=O)N[C@@H](Cc2ccc(O)cc2)C(=O)N[C@H](Cc2c[nH]c3ccccc23)C(=O)N[C@@H](CCCCN)C(=O)N[C@@H]([C@@H](C)O)C(=O)N1)C(=O)O [Cytate 2, bisOctreotate-Bisethylcarboxymethylindocyanine dye] |  |  |  |  |  |  |  | rapidly increased to a peak value | decayed as a function of time |  |  |  |  |  |  |  |
| CC1(C)C(/C=C/C=C/C=C/C=C2\N(CCCCS(=O)(=O)O)c3ccc4ccccc4c3C2(C)C)=[N+](CCCCS(=O)(=O)[O-])c2ccc3ccccc3c21 [ICG, indocyanine green] |  |  |  |  |  |  |  |  |  | considerably diminished | slow perfusion of the agent over time into the tumor | considerably diminished and almost absent | mostly cleared | only a slight but transient perfusion that was absent after only 30 minutes post injection | considerably diminished | slow perfusion of the agent over time into the tumor |
